# Results from patent publication US20210181204A1 (SYNGENTA PARTICIPATIONS, published 2021).
# Substitutions are numbered along the chain they refer to. Numbers in names are those of the source.
# T1: mCry3A insecticidal protein (Bacillus thuringiensis subsp. …, UniProt P0A379 48-644, limits assumed)
# T1 construct: also called modified Cry3A
# T1 sequence: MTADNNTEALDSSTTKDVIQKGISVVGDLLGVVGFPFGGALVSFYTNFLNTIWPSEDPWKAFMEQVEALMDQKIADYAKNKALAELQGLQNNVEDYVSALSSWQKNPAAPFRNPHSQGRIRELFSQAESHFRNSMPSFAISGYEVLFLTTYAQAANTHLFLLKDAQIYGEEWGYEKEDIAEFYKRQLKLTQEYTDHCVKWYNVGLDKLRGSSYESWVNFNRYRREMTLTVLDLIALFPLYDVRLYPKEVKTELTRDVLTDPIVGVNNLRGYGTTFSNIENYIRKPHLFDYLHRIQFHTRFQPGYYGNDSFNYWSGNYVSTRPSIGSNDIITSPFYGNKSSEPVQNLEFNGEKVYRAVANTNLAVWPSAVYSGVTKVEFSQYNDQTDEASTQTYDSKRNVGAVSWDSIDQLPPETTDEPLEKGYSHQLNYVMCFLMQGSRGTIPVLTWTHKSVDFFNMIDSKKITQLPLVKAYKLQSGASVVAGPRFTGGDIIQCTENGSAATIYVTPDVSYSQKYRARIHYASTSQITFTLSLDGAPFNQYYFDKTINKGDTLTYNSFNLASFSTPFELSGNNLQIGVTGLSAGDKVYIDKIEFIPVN
# B1: synNAPS13 variant K7A (designed binder)
# chain: RGSHHHHHHGSMVKVKFARWGEEKEVDTSKILHVLRVGKYVRFSYDDNGKLGAGYVTEKDAPKELLDMLARAEREKK
# B2: synNAPS13 variant V26A (designed binder)
# chain: B1 chain with A18K, V37A
# B3: synNAPS13 variant T46A (designed binder)
# chain: B1 chain with A18K, T57A
# B4: synNAPS13 variant S33A (designed binder)
# chain: B1 chain with A18K, S44A
# B5: synNAPS13 variant Y29A (designed binder)
# chain: B1 chain with A18K, Y40A
# B6: synNAPS13 variant W9A (designed binder)
# chain: B1 chain with A18K, W20A
# B7: synNAPS13 variant L21A (designed binder)
# chain: B1 chain with A18K, L32A
# B8: synNAPS13 variant L24A (designed binder)
# chain: B1 chain with A18K, L35A
# B9: synNAPS13 variant R8A (designed binder)
# chain: B1 chain with A18K, R19A
# B10: synNAPS13 variant L40A (designed binder)
# chain: B1 chain with A18K, L51A
# B11: synNAPS-9 ligand (designed binder)
# chain: MVKVKFAQGGEEKEVDTSKIYRVPRHGKIVFFMYDDNGKGGFGHVTEKDAPKELLDMLARAEREKK
# B12: synNAPS9 variant F31A (designed binder)
# chain: RGSHHHHHHGSMVKVKFAQGGEEKEVDTSKIYRVPRHGKIVAFMYDDNGKGGFGHVTEKDAPKELLDMLARAEREKK
# B13: synNAPS9 variant P24A (designed binder)
# chain: B12 chain with P35A, A42F
# B14: synNAPS9 variant Y21A (designed binder)
# chain: B12 chain with Y32A, A42F
# B15: synNAPS9 variant G40A (designed binder)
# chain: B12 chain with A42F, G51A
# B16: synNAPS9 variant G9A (designed binder)
# chain: B12 chain with G20A, A42F
# B17: synNAPS9 variant R22A (designed binder)
# chain: B12 chain with R33A, A42F
# B18: synNAPS9 variant F42A (designed binder)
# chain: B12 chain with A42F, F53A
# B19: synNAPS9 variant H26A (designed binder)
# chain: B12 chain with H37A, A42F
# B20: synNAPS-1tag ligand (designed binder)
# chain: MRGSHHHHHHGSVKVKFGPWGEEKEVDTSKIVDVWRWGKYVDFFYDDNGKVGIGSVTEKDAPKELLDMLARAEREKKLGSGLNDIFEAQKIEWH
# modifications: in vivo biotinylation (E. coli BirA strain) on the C-terminal avidin-tag
# notes: also called tagged synNAPS 1
# B21: synNAPS-12tag ligand (designed binder)
# chain: MRGSHHHHHHGSVKVKFKLTGEEKEVDTSKIQWVARFGKFVDFLYDDNGKTGWGWVYEKDAPKELLDMLARAEREKKLGSGLNDIFEAQKIEWH
# modifications: in vivo biotinylation (E. coli BirA strain) on the C-terminal avidin-tag
# notes: also called tagged synNAPS 12
# B22: synNAPS-14tag ligand (designed binder)
# chain: B21 chain with L19Y, T20K, Q32I, W33F, A35Y, D42M, L44I, W53H, W55D, Y57R
# modifications: in vivo biotinylation (E. coli BirA strain) on the C-terminal avidin-tag
# notes: also called tagged synNAPS 14
# B23: synNAPS-10tag ligand (designed binder)
# chain: MRGSHHHHHHGSVKVKFLMKGEEKEVDTSKIKWVNRHGKYVAFYYDDNGKTGGGEVREKDAPKELLDMLARAEREKKLGSGLNDIFEAQKIEWH
# modifications: in vivo biotinylation (E. coli BirA strain) on the C-terminal avidin-tag
# notes: also called tagged synNAPS 10
# B24: synNAPS2 variant K7A (designed binder)
# chain: RGSHHHHHHGSMVKVKFAYKGEEKEVDTSKIVWIGRFGKSVYFRYDDNGKTGAGRVYEKDAPKELLDMLARAEREKK
# B25: synNAPS2 variant Y46A (designed binder)
# chain: B24 chain with A18K, Y57A
# B26: synNAPS2 variant V21A (designed binder)
# chain: B24 chain with A18K, V32A
# B27: synNAPS2 variant F26A (designed binder)
# chain: B24 chain with A18K, F37A
# B28: synNAPS2 variant Y8A (designed binder)
# chain: B24 chain with A18K, Y19A
# B29: synNAPS2 variant R33A (designed binder)
# chain: B24 chain with A18K, R44A
# B30: synNAPS2 variant I23A (designed binder)
# chain: B24 chain with A18K, I34A
# B31: synNAPS2 variant T40A (designed binder)
# chain: B24 chain with A18K, T51A
# B32: synNAPS2 variant K9A (designed binder)
# chain: B24 chain with A18K, K20A
# B33: synNAPS2 variant G24A (designed binder)
# chain: B24 chain with A18K, G35A
# B34: synNAPS-2 ligand (designed binder)
# chain: MVKVKFKYKGEEKEVDTSKIVWIGRFGKSVYFRYDDNGKTGAGRVYEKDAPKELLDMLARAEREKK
# Molecular target: eCry3.1Ab hybrid insecticidal protein
# Assay: direct ELISA: eCry3.1Ab coated at 1 ug/ml, RGS-His HRP detection
row,Binder,Binding (OD 450 nm)
1,B1,3 OD 450 nm
2,B2,1.8 OD 450 nm
3,B3,4.1 OD 450 nm
4,B4,4.1 OD 450 nm
5,B5,2.6 OD 450 nm
6,B6,1 OD 450 nm
7,B7,1.8 OD 450 nm
8,B8,1.1 OD 450 nm
9,B9,2.4 OD 450 nm
10,B10,0.5 OD 450 nm

# Molecular target: T1, mCry3A insecticidal protein
# Assay: direct ELISA: mCry3A coated at 1 ug/ml, RGS-His HRP detection
row,Binder,Binding (OD 450 nm)
1,B11,2.5 OD 450 nm
2,B12,1.4 OD 450 nm
3,B13,0.5 OD 450 nm
4,B14,1.8 OD 450 nm
5,B15,1.7 OD 450 nm
6,B16,1.5 OD 450 nm
7,B17,1 OD 450 nm
8,B18,0.2 OD 450 nm
9,B19,1.8 OD 450 nm

# Molecular target: T1, mCry3A insecticidal protein
# Assay: direct ELISA, coated protein, SA-AP, 405 nm
row,Binder,binding result
1,B20,no binding (tested: 10 nM)
2,B21,no binding (tested: 10 nM)
3,B22,no binding (tested: 10 nM)
4,B23,no binding (tested: 10 nM)

# Molecular target: eCry3.1Ab hybrid insecticidal protein
# Assay: direct ELISA, coated protein, SA-AP, 405 nm
row,Binder,binding result
1,B20,no binding (tested: 10 nM)
2,B21,no binding (tested: 10 nM)
3,B22,no binding (tested: 10 nM)
4,B23,no binding (tested: 10 nM)

# Molecular target: Cry1Ab.1Ca insecticidal protein
# Assay: direct ELISA, coated protein, SA-AP, 405 nm
row,Binder,binding result
1,B20,no binding (tested: 10 nM)
2,B21,no binding (tested: 10 nM)
3,B22,no binding (tested: 10 nM)
4,B23,no binding (tested: 10 nM)

# Molecular target: Cry1Ai insecticidal protein
# Assay: direct ELISA, coated protein, SA-AP, 405 nm
row,Binder,binding result
1,B20,no binding (tested: 10 nM)
2,B21,no binding (tested: 10 nM)
3,B22,no binding (tested: 10 nM)
4,B23,no binding (tested: 10 nM)

# Molecular target: T2, Cry1Ab insecticidal protein (Bacillus thuringiensis, UniProt P0A370 1-615)
# Assay: direct ELISA, coated protein, SA-AP, 405 nm
row,Binder,binding result
1,B20,no binding (tested: 10 nM)
2,B21,no binding (tested: 10 nM)
3,B22,no binding (tested: 10 nM)
4,B23,no binding (tested: 10 nM)

# Molecular target: Cry1Aa insecticidal protein (Bacillus thuringiensis subsp. aizawai, UniProt P0A367 12-1176)
# Assay: direct ELISA, coated protein, SA-AP, 405 nm
row,Binder,binding result
1,B20,no binding (tested: 10 nM)
2,B21,no binding (tested: 10 nM)
3,B22,no binding (tested: 10 nM)
4,B23,no binding (tested: 10 nM)

# Molecular target: T2, Cry1Ab insecticidal protein
# Assay: direct ELISA: Cry1Ab coated at 1 ug/ml, RGS-His HRP detection
row,Binder,Binding (OD 450 nm)
1,B24,4 OD 450 nm
2,B25,3.5 OD 450 nm
3,B26,3.8 OD 450 nm
4,B27,3.7 OD 450 nm
5,B28,2.4 OD 450 nm
6,B29,2.2 OD 450 nm
7,B30,3.2 OD 450 nm
8,B31,4 OD 450 nm
9,B32,4 OD 450 nm
10,B33,4 OD 450 nm
11,B34,4 OD 450 nm
